# Literature values as cited in paper doi:10.1101/2024.07.26.605324.
# Legend:
# His27 = His27 (UniProt position 27, AWTIGHLNQIK); assay: NMR; conditions: 243–263 K; membrane-bound tetramer, wild type with both His19 and His27 present
# His19 = His19 (UniProt position 19, ILSALHFMAWT); assay: NMR; conditions: 243–263 K; membrane-bound tetramer, wild type with both His19 and His27 present
substance,measurement,setting,value
Influenza B virus matrix protein 2 (BM2) proton channel (Influenza B virus),pKa,His27,7.9
same,pKa,His19,4.2
